The text below walks through data of article PMC12065857 (Nature Communications, 2025).

No end group written: not given here.

The target in this assay is T1, paLptD, LptD from Pseudomonas aeruginosa (as the chain in paLptDEHis) (Pseudomonas aeruginosa, UniProt Q9I5U2 34-924).
T1 sequence: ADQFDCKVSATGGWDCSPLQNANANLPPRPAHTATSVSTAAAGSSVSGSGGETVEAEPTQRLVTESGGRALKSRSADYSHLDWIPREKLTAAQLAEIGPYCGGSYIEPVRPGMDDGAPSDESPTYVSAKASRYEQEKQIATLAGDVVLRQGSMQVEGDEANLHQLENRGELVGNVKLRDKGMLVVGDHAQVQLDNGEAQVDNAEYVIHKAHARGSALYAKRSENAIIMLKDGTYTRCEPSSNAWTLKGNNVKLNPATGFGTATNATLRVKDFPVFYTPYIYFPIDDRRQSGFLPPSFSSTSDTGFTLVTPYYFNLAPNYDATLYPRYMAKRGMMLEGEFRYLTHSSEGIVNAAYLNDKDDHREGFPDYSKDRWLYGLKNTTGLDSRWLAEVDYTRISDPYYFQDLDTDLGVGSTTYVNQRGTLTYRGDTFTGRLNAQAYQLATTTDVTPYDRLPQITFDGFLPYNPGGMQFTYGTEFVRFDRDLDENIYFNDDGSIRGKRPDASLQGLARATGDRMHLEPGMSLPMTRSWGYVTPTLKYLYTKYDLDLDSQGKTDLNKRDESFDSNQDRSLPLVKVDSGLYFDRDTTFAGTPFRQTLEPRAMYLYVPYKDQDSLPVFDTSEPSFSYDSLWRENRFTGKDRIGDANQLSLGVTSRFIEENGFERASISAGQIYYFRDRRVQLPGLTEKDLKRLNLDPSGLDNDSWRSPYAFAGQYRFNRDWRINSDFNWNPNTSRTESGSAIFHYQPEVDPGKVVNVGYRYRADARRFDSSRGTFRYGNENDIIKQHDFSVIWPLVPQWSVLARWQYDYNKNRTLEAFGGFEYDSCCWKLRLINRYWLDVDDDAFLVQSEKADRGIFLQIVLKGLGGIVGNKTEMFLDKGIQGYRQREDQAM
The experiment in a line: crystal structure.

B1: LptM (formerly YifL), endogenous Escherichia coli lipoprotein (natural protein)
chain: CGLKGPLYFPPADKNAPPPTKPVETQTQSTVPDKNDRATGDGPSQVNY
modifications: also: three acyl chains (R1, R2, R3) at the N-terminus
Turning to B1, the binding result is on record as “binds”.
